This experiment concerns the target biotin synthase (Escherichia coli) (UniProt P12996).

For “ferredoxin(flavodoxin)-NADP+ reductase (from UniProt P28861) (enzyme)”, the pmol of biotin produced worked out at 800 pmol.

As for flavodoxin (from UniProt P61949), the pmol of biotin produced came out at 800 pmol.

The values above are taken from US6083712.
